According to article PMC3722096, “Crystal Structure of the N-Acetyltransferase Domain of Human N-Acetyl-L-Glutamate Synthase in Complex with N-Acetyl-L-Glutamate Provides Insights into Its Catalytic and Regulatory Mechanisms” (PLoS ONE, 2013):

What was measured:
[1] = molecular target: NAT domain of mouse NAGS (mouse); assay: SEC; analytic gel filtration, Superdex 200 HR 10/30; 100 mM NaH2PO4 pH 7.4, 150 mM NaCl, 10% glycerol, 1 mM β-mercaptoethanol; weights from a standard curve
[2] = molecular target: the molecule itself; assay: cross-linking; dimethyl suberimidate (4.5 µg) or suberic acid bis(3-sulfo-N-hydroxysuccinimide ester) sodium salt (9.0 µg), 10 µl of 200 mM triethanolamine pH 8.25, three hours at 298 K; SDS-PAGE, Coomassie (mNAGS) or silver (hNAGS) stain
[3] = molecular target: the molecule itself; assay: SEC; analytic gel filtration, Superdex 200 HR 10/30; 100 mM NaH2PO4 pH 7.4, 150 mM NaCl, 10% glycerol, 1 mM β-mercaptoethanol; weights from a standard curve

Molecule | stoichiometry N [2] | further results
NAT domain of mouse NAGS (domain or fragment) | – | stoichiometry N [1]: 2
complete human N-acetylglutamate synthase (enzyme, UniProt Q8N159 19-534, looked up, N-acetylglutamate synthase (NAGS, EC 2.3.1.1), human; the printed tetramer weight of 202.4 kDa gives 50.6 kDa a subunit; also called hNAGS; human NAGS) LRGRGGTGGARRLSCGARRRAARGTSPGRRLSTAWSQPQPPPEEYAGADDVSQSPVAEEPSWVPSPRPPVPHESPEPPSGRSLVQRDIQAFLNQCGASPGEARHWLTQFQTCHHSADKPFAVIEVDEEVLKCQQGVSSLAFALAFLQRMDMKPLVVLGLPAPTAPSGCLSFWEAKAQLAKSCKVLVDALRHNAAAAVPFFGGGSVLRAAEPAPHASYGGIVSVETDLLQWCLESGSIPILCPIGETAARRSVLLDSLEVTASLAKALRPTKIIFLNNTGGLRDSSHKVLSNVNLPADLDLVCNAEWVSTKERQQMRLIVDVLSRLPHHSSAVITAASTLLTELFSNKGSGTLFKNAERMLRVRSLDKLDQGRLVDLVNASFGKKLRDDYLASLRPRLHSIYVSEGYNAAAILTMEPVLGGTPYLDKFVVSSSRQGQGSGQMLWECLRRDLQTLFWRSRVTNPINPWYFKHSDGSFSNKQWIFFWFGLADIRDSYELVNHAKGLPDSFHKPASDPGS | 4 | –
complete mouse N-acetylglutamate synthase (enzyme, UniProt Q8R4H7 19-527, looked up, N-acetylglutamate synthase (NAGS, EC 2.3.1.1), mouse; the printed tetramer weight of 195.8 kDa gives 48.95 kDa a subunit; also called mNAGS; mouse NAGS) LRSPGGPGGSRRLSGSARRRGAKSASPGRRLSTARAHAEDAEGAKGRVQSPAVEEPSWTPLPTPLESPAPPAGRSLVQRDIQAFLNQCGASPGEARHWLTQFQTCYHSVDKPFAVMEVDEEVIRCPQAVSRLAFALAFLQRMDMKPLVVLGLPTPTAPSGCLSFWEAKAQLAQSCKVLVDELRHNAATAVPFFGGGSVLSAAEPAPHASYGGIVAVETDLLQWCLESNSIPILCPIGETAARRSVLLDSLEVTASLAKALQPTKIIFLNNSGGLRNNSQKILSNVNLPADLDLVTNAEWLSIKERQQIRLIVDVLSRLPHYSSAVITAASTLLTELFSNKGCGTLFKNAERMLRVRNLDSLDQGRLVNLVNASFGKKLREDYLESLRPRLHSIYVSEGYNAAAILTVEPVLGGTPYLDKFVVSSSRQGQGSGQMLWECLRRDLQTLFWRSRVTNPINPWYFKHSDGSFSNKQWIFFWFGLADIRDSYELVNHAKGLPDSFCKPASDPGS | 4 | –
human NAGS N-acetyltransferase domain (residues 377-534), as used in gel filtration (domain or fragment, UniProt Q8N159 377-534, looked up, N-acetyltransferase (NAT) domain of human N-acetylglutamate synthase, residues 377-534; also called hNAT; hNAT domain) MLRVRSLDKLDQGRLVDLVNASFGKKLRDDYLASLRPRLHSIYVSEGYNAAAILTMEPVLGGTPYLDKFVVSSSRQGQGSGQMLWECLRRDLQTLFWRSRVTNPINPWYFKHSDGSFSNKQWIFFWFGLADIRDSYELVNHAKGLPDSFHKPASDPGS | – | stoichiometry N [3]: 2
